Target: T1, pVIc-TMR (UniProt P03274 240-250)
T1 chain: GVQSLKRRRCF
Test: fluorescence polarization

B1: 30 bp dsDNA (dsDNA)
DNA 1: GACGACTAGGACGACGACGAGGATGACGAC
DNA 2: GTCGTCATCCTCGTCGTCGTCCTAGTCGTC
Work on B1 yielded a Kd of 262 ± 88 nM.
